Key:
[1] = biological target: T1, cleaved high molecular weight kininogen (HMWK) (human, UniProt P01042 19-380; P01042 390-644); assay: sandwich ELISA: Fab coated on 96-well plate, kininogen titrated, detection 11H05 + 13B12 and goat anti-mouse-HRP; value = C, midpoint of the printed 4-P fit; 2-chain HMWK spiked into HMWK-deficient plasma
T1 construct: also called cleaved HMWK; 2-chain HMWK
T1 sequence 1: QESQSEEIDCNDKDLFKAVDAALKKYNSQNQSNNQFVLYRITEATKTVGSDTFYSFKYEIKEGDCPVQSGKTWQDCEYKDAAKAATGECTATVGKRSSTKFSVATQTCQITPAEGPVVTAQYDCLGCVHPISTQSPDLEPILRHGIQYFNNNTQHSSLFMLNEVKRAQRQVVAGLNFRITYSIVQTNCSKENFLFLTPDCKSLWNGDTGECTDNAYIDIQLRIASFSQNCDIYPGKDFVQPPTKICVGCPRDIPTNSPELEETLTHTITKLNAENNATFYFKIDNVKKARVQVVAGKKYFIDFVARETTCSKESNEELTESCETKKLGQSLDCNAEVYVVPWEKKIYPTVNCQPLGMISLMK
T1 sequence 2: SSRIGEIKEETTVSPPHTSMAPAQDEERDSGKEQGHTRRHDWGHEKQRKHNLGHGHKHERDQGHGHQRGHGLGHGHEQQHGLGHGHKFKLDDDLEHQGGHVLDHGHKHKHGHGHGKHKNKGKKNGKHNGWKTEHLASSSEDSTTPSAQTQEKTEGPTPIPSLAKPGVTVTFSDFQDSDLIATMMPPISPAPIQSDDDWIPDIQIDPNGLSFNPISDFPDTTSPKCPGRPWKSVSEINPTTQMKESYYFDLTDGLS
Excerpt: (§1) Purified cleaved HMWK was spiked into SBT assay buffer (circles) or HMWK-deficient plasma (squares). Purified intact HMWK was spiked into SBT assay buffer (triangles). Purified LMWK was spiked into SBT assay buffer (diamonds). The y-axis presents the ELISA signal in absorbance units, and the x-axis presents the concentration of kininogen in μg/mL.
(§2) The following day, the plate was washed and then blocked with 2% BSA (Protease/IgG free) in PBS buffer. Following a wash, samples containing cleaved HMWK in 0.1% BSA buffer in PBS with 0.05% Tween-20 (2-Chain HMWK assay buffer). Purified protein standards (e.g., 2-chain HMWK, intact HMWK or LMWK) were spiked into HMWK-deficient plasma and diluted 1:320 in 2-chain HMWK assay buffer. Following plate washing with PBST, a mixture of 2 mouse monoclonal antibodies (11H05 and 13B12) at 1 μg/mL in 2-chain HMWK assay buffer were added for 1 hour at room temperature. Unbound detection antibodies were washed and a 1:2000 dilution of goat anti-mouse secondary antibody conjugated to horseradish peroxidase (HRP) was added. […] Signal was detected by the addition of 3,3′,5,5′-tetramethylbenzidine (TMB), an HRP substrate. […] Hydrolysis of a TMB substrate was detected using a microplate reader at 450 nm-630 nm (FIG. 3). […] Using these immunoassay conditions, specifically binding to cleaved HMWK was detected.

[2] = biological target: T1, cleaved high molecular weight kininogen …; assay: sandwich ELISA with coated Fab; value = C, midpoint of the printed 4-P fit; 2-chain HMWK spiked into HMWK-deficient plasma, analysed in 10% plasma
Excerpt: Purified cleaved HMWK was spiked into SBT assay buffer (open circles), SBT assay buffer and analyzed in the presence of 10% plasma (squares), or HMWK-deficient plasma and analyzed in the presence of 10% plasma (triangles). Purified cleaved HMWK was also spiked into assay buffer and analyzed in the presence of 2.5% plasma (diamonds) or HMWK deficient plasma and analyzed in the presence of 2.5% plasma (closed circles). The y-axis presents the ELISA signal in absorbance units, and the x-axis presents the concentration of kininogen in μg/mL.
as §2, with “temperature.” for “temperature. Unbound detection antibodies were washed and a 1:2000 dilution of goat anti-mouse secondary antibody conjugated to horseradish peroxidase (HRP) was added.”

[3] = biological target: T2, intact high molecular weight kininogen (HMWK) (Homo sapiens, UniProt P01042 19-644); assay: sandwich ELISA: Fab coated on 96-well plate, kininogen titrated, detection 11H05 + 13B12 and goat anti-mouse-HRP; value = C, midpoint of the printed 4-P fit; 1-chain HMWK in SBT buffer; weak signal: only two points drawn (about 0.2 at 200, about 0.5 at 2000), fitted top 0.627 against 2.85 for 2-chain HMWK
T2 construct: also called intact HMWK; 1-chain HMWK
T2 sequence: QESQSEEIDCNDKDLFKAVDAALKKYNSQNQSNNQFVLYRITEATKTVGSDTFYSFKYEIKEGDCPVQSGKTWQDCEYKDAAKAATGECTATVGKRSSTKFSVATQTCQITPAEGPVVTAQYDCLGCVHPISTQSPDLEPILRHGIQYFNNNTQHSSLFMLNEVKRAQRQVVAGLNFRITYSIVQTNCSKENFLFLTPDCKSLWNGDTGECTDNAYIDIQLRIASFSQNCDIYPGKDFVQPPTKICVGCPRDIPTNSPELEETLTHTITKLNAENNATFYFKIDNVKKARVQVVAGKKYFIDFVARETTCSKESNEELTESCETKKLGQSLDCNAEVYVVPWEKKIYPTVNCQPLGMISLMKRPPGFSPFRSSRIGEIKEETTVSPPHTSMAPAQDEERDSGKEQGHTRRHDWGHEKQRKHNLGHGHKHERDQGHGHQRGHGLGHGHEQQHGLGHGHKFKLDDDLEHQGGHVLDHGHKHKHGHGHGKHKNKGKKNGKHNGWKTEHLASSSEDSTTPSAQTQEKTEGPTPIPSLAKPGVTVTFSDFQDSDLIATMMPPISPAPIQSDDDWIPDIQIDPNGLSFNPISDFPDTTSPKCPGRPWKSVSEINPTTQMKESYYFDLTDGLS
Excerpt: as §1, §2

B1: 559B-M0004-B04 (Fab, V domains shown)
VH: EVQLLESGGGLVQPGGSLRLSCAASGFTFSFYVMVWVRQAPGKGLEWVSGISPSGGNTAYADSVKGRFTISRDNSKNTLYLQMNSLRAEDTAVYYCARKLFYYDDTKGYFDFWGQGTLVTVSS
VL: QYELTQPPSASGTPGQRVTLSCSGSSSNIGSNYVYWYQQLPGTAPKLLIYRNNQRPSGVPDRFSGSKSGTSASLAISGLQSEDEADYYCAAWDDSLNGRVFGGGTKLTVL
notes: also called M004-B04
B1 showed an EC50 [1] of 247 µg/mL, an EC50 [2] of 165 µg/mL and an EC50 [3] of 1110 µg/mL.
